Assay [1] addresses T1, human PRLR on cells (endogenous on T47D, T47D#11, MCF7); introduced in HEK293/hPRLR/STAT5-Luc, 293/hPRLR, … (human, UniProt P16471 25-622).
T1 sequence: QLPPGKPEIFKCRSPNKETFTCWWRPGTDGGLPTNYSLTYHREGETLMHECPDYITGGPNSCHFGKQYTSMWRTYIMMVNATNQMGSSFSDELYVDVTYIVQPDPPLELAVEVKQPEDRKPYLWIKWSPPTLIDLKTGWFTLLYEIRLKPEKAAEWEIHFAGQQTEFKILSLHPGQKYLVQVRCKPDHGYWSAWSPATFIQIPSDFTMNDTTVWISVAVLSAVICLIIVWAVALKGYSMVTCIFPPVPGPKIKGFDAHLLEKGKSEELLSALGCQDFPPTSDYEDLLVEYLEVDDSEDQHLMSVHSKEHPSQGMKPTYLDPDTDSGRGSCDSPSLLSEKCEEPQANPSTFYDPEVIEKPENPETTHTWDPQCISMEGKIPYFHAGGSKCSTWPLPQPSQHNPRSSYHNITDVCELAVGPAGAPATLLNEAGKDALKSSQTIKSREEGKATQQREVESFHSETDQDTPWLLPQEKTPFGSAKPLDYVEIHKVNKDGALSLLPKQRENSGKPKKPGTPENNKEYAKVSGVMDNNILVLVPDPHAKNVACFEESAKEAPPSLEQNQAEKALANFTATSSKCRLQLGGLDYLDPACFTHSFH
Put plainly: cell-based or functional assay.

Assay [2] concerns the target T2, hPRLR.mFc (soluble dimeric human PRLR) (human).
T2 construct: dimeric PRLR construct
T2 chain: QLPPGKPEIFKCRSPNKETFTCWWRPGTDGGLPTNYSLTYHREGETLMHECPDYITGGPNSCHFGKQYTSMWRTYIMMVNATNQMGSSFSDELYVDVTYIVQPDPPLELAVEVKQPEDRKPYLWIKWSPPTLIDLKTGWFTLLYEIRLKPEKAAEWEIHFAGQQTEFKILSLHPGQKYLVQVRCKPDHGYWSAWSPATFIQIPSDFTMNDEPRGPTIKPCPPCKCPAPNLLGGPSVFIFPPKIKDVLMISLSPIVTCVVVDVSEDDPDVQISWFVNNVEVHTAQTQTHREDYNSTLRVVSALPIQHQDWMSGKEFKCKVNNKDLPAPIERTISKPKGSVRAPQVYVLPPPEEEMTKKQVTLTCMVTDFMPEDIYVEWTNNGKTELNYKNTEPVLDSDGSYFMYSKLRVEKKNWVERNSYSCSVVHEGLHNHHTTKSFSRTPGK
The experiment in a line: SPR (Biacore), antibody capture, 37 C. As to the method: (§1) Measurements were conducted on a T200 Biacore instrument. Kinetic association (kₐ) and dissociation (kd) rate constants were determined by processing and fitting the data to a 1:1 binding model using Scrubber 2.0 curve fitting software.
(In general: SPR reads the build-up and loss of mass on a sensor chip optically.)

Assay [3] concerns the target T3, hPRLR.mmh (soluble monomeric human PRLR) (human).
T3 construct: soluble monomeric PRLR protein
T3 chain: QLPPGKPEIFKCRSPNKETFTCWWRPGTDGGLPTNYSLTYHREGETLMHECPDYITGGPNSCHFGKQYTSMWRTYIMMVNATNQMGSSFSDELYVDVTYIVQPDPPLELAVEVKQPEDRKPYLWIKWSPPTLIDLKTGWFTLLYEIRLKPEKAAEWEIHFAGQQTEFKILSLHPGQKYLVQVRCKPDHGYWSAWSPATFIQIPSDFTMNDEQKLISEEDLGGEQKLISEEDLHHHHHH
The experiment in a line: SPR (Biacore), antibody capture, 37 C. As to the method: as §1

Assay [4] addresses T4, mfPRLR.mmh (soluble monomeric macaca fascicularis PRLR) (macaca fascicularis).
T4 construct: soluble monomeric PRLR protein; also called macaca fascicularis (mf) PRLR.mmh; monkey PRLR
T4 chain: T3 chain with I76V, A110T, I125M, I158T, T207I
Put plainly: SPR (Biacore), antibody capture, 37 C. As to the method:
as §1

For assay [5], the target named is T1, human PRLR on cells (endogenous on …). Put plainly: FACS on T47D cells.
For assay [6] the target is unchanged. The experiment in a line: imaging of alexa488 intensity on T47D cells. In outline: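 T47D cells labelled on ice with alexa488 anti-hFc Fab secondary for 30 min, then held 1 h at 37 °C in PBS+2% FBS or at 4 °C. After fixation and DRAQ5 staining, whole-cell (binding) and intracellular-vesicle (internalization) alexa488 intensities at 37 °C quantified by imaging.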

For assay [7] the target is unchanged. Put plainly: cell-based or functional assay. This is another data set of the same source.

Numbering of substitutions follows the chain as printed. Numbers in names are those of the source.

B1: H1H6807P (antibody, V domains shown)
VH: QVQLVESGGGVVQPGRSLRLSCAASGFTFSDYNMHWVRQAPGKGLEWVAVIWYDGSNKHYADSVKGRFTISRDNSKNTLYLQMNSLRAEDTAVYYCARDGFTIFGMVLDYWGQGTLVTVSS
VL: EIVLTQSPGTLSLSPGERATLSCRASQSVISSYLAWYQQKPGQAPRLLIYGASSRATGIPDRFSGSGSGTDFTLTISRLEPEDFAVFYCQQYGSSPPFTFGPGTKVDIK
notes: human IgG1 Fc (H1H)
Regarding B1, in assay [1], the “IC50 of Blocking 5 nM PRL [M] (STAT5-Luc reporter, HEK293/hPRLR/STAT5-Luc cells)” value is 6e-10 M and the “Percent Blocking at 100 nM Antibody (STAT5-Luc reporter)” value (“Percent Blocking at 100 nM Antibody” for short) was determined as 100%. In assay [2], the Kd came out at 0.09 nM, the “T 1/2” value stood at 105 min, the koff was determined as 0.00011 s⁻¹ and the on-rate constant (kon) came to 1.22e+06 M⁻¹ s⁻¹. In assay [3], the Kd turned out to be 0.31 nM, the “T 1/2” value came to 34 min, the koff came to 0.000336 s⁻¹ and the kon was found to be 1.08e+06 M⁻¹ s⁻¹. In assay [4], the dissociation constant (Kd) came to 0.448 nM, the “T 1/2” value stood at 32 min, the koff amounted to 0.000359 s⁻¹ and the kon amounted to 802000 M⁻¹ s⁻¹. Besides, the “FACS Cell Binding (Fold Above Background)” value in assay [5] came to 34 fold. Also, the “% Total Binding relative to Control I” value in assay [6] amounted to 153%. Also, in assay [7], the “% Internalization relative to Control I (T47D cells, imaging)” value (from here on “% Internalization relative to Control I”) amounted to 147%.

B2: H1H6795P (antibody, human IgG1, V domains shown)
VH: QVQLVQSGAEVKKPGASVKVSCKASGYTFGTSGITWVRQAPGQGLEWMGWSSAYNGKTDYAQKFQDRVTMTTDTSTTTGYMEMRSLTSDDTAVYYCTTVVRRPFDFWGQGTLVTVSS
VL: DIQMTQSPSSLSASVGDRVTITCRASQDINNFLAWFQQKPGKAPKSLIYAASSLQSGVPSKFSGGGSGTDFALTISSLQPEDFATYYCQQYSSYPITFGQGTRLEIK
notes: human IgG1 Fc (H1H)
B2: the “Percent Blocking at 100 nM Antibody” value in assay [1] worked out at 0%. Besides, in assay [2], binding was put at a Kd of 0.0402 nM, the “T 1/2” value came to 149 min, the koff turned out to be 7.77e-05 s⁻¹ and the association rate constant (kon) is 1.94e+06 M⁻¹ s⁻¹. Moreover, in assay [3], the dissociation constant Kd came to 3.81 nM, the “T 1/2” value turned out to be 2 min, the koff was found to be 0.0052 s⁻¹ and the kon was determined as 1.36e+06 M⁻¹ s⁻¹. In assay [4], binding was put at a Kd of 6.16 nM, the “T 1/2” value was 2 min, the koff stood at 0.00599 s⁻¹ and the kon came out at 973000 M⁻¹ s⁻¹. Besides, in assay [5], the “FACS Cell Binding (Fold Above Background)” value amounted to 34 fold. Further, the “% Total Binding relative to Control I” value in assay [6] is 123%. The “% Internalization relative to Control I” value in assay [7] came to 151%.

B3: H1H6790P (antibody, human IgG1, V domains shown)
VH: EVQLVESGGGLVQPGGSLRLSCAASGFTFSSYAMTWVRQAPGKGLEWVSAITGSVGNTYYADSVKGRFTISRDNSKNTLYLQMNSLGAEDTAEYYCAKGAGMTTNWYLDLWGRGTLVTVSS
VL: DIVMTQSPDSLAVSLGARATINCKSSQSVLYSSNNQNYLTWYQQKPGQPPKLLIKWASTRESGVPDRFSGSGSGTDFTLTISSLQAEDVAVYYCQQYASSPYTFGQGTKLEIK
notes: human IgG1 Fc (H1H)
Take B3: in assay [1], the “IC50 of Blocking 5 nM PRL [M] (STAT5-Luc reporter, HEK293/hPRLR/STAT5-Luc cells)” value worked out at 2.06e-10 M and the “Percent Blocking at 100 nM Antibody” value was determined as 100%. In assay [2], the affinity, expressed as Kd, was 0.306 nM; the “T 1/2” value came to 58 min; the koff is 0.000198 s⁻¹; the kon came to 646000 M⁻¹ s⁻¹. In assay [3], the Kd worked out at 3.5 nM, the “T 1/2” value stood at 4 min, the koff stood at 0.00329 s⁻¹ and the kon is 940000 M⁻¹ s⁻¹. Moreover, in assay [4], the dissociation constant (Kd) stood at 5.22 nM, the “T 1/2” value was 4 min, the koff worked out at 0.00321 s⁻¹ and the association rate constant (kon) came to 615000 M⁻¹ s⁻¹. Also, the “FACS Cell Binding (Fold Above Background)” value in assay [5] came to 34 fold. In assay [6], the “% Total Binding relative to Control I” value is 123%. The “% Internalization relative to Control I” value in assay [7] came out at 147%.

B4: H1H6953N (antibody, human IgG1, V domains shown)
VH: EVQLLESGGGLVQPGGTLRLSCAASGFTFSAYAMSWVRQAPGKGLEWVSSINVRAGDTYYADSVKGRFTISRDNSKNTLFLLMNSLRAEDTAAYYCAKARYSSNWGFDFWGQGTLVTVSS
VL: DIVMTQSPDSLTVSLGARTTINCQSSQTILHSSNNHNYLAWYQQKPGLPPKLLIYWSSTRESGVPDRFSGSGSGTDFTLTISSLQAEDVAIYYCQQYSNTPYTFGQGTKLEIN
notes: also called H1M6953N
For B4, in assay [1], the “IC50 of Blocking 5 nM PRL [M] (STAT5-Luc reporter, HEK293/hPRLR/STAT5-Luc cells)” value was 1.05e-10 M and the “Percent Blocking at 100 nM Antibody” value came to 100%. In assay [2], the dissociation constant Kd came to 0.116 nM, the “T 1/2” value worked out at 68 min, the off-rate (koff) came out at 0.00017 s⁻¹ and the on-rate constant (kon) came to 1.47e+06 M⁻¹ s⁻¹. Further, in assay [3], binding was characterised by a dissociation constant (Kd) of 1.11 nM, the “T 1/2” value worked out at 9.4 min, the koff worked out at 0.00122 s⁻¹ and the kon worked out at 1.1e+06 M⁻¹ s⁻¹. In addition, in assay [4], the dissociation constant (Kd) was determined as 2.71 nM, the “T 1/2” value was 4.5 min, the koff stood at 0.00256 s⁻¹ and the kon was found to be 947000 M⁻¹ s⁻¹. Further, the “FACS Cell Binding (Fold Above Background)” value in assay [5] was found to be 40 fold. Further, in assay [6], the “% Total Binding relative to Control I” value was 164%. In assay [7], the “% Internalization relative to Control I” value came to 154%.

B5: H1H6797P (antibody, human IgG1, V domains shown)
VH: EVQLVESGGGLVQPGGSLRLSCIVSGFTFSGSWMSWVRQLPGKGLEWVANIKEDGSDSYYVDSVEGRFTISRDNAKSSLYLQMNSLRVDDTAVYFCARARTVPLHYWGQGTLVTVSS
VL: DIQMTQSPSTLSASVGDRVTITCRASQSINIWLAWYQQKPGKAPKLLIYRASYLESGVPSSFAGGGSGTEFTLTISSLQPDDFGTYYCQHYNSYPFTFGQGTKLEIK
notes: human IgG1 Fc (H1H)
In the case of B5, the “Percent Blocking at 100 nM Antibody” value in assay [1] worked out at 0%. Also, in assay [2], the Kd turned out to be 0.0691 nM, the “T 1/2” value was 93 min, the koff turned out to be 0.000125 s⁻¹ and the kon was determined as 1.8e+06 M⁻¹ s⁻¹. For the same molecule, in assay [3], the dissociation constant (Kd) was 6.37 nM, the “T 1/2” value was determined as 1 min, the off-rate (koff) was 0.00822 s⁻¹ and the kon was determined as 1.29e+06 M⁻¹ s⁻¹. Besides, in assay [4], the Kd was determined as 9.9 nM, the “T 1/2” value worked out at 1 min, the koff is 0.00906 s⁻¹ and the kon was 914000 M⁻¹ s⁻¹. Besides, in assay [5], the “FACS Cell Binding (Fold Above Background)” value is 38 fold. The “% Total Binding relative to Control I” value in assay [6] was 151%. In assay [7], the “% Internalization relative to Control I” value was found to be 145%.

The term Kd denotes the constant that tells how readily two partners part at equilibrium. Higher therefore signals weaker binding. In general, koff refers to the rate constant with which the complex falls apart. A high value points to fast dissociation. By kon is commonly meant a measure of how fast the partners come together.

Source of the values: US20180185504A1 (Regeneron, published 2018).
